From US6372892

Target: recombinant human IL-1β (human) (UniProt P01584)
Assay: cell-based or functional assay

Sequence of UniProt P01584 (P01584 117-269 limits assumed): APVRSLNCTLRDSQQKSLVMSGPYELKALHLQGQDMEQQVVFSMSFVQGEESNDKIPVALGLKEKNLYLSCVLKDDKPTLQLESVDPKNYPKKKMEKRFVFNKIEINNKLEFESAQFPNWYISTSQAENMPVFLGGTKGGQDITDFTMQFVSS

## IL-1 Hy2 (from UniProt Q8WWZ1 1-152) (ligand)
  IL-1β induced PGE2 production in human fibroblasts (CCD 1098), PGE2 ELISA; IL-1 Hy2 at 1000 fold excess: 40 to 60 % inhibition
